# Data from the supplement of paper PMC10724198.
# ± gives the standard deviation of the averaged measurements.
# Tested on: Saccharomyces cerevisiae
# Assay: protein stability index of tFT-peptide fusion (C-terminal peptide) (PSI (0-1 scale)); higher = more stable (slower turnover)
# Settings: genetic background: wild type; temperature: 30 C
# Description: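 Multiplexed protein stability (MPS) profiling in S. cerevisiae. Random 12-aa peptides (tFT-X12 library) are fused to the C-terminus of a sfGFP-mCherry tandem fluorescent timer, after mCherry and a GGGS linker. Cells are FACS-sorted into 8 mCherry/sfGFP bins and deep-sequenced. The protein stability index (PSI) is the read-weighted bin average, scaled from 0 (unstable) to 1 (stable). Only peptides with >10 reads are reported; cells were grown at 30 °C in SC-His with glucose.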
# 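Further: PSI is a weighted mean of sequencing reads over stability bins, variants kept only with over 10 reads, mCherry proximal and sfGFP distal, peptide attached via GGGS linker.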
row,Sequence,protein stability index
1,AVFWLRFSRISV,0.618 ± 0.0094
2,AVFYGRWRGVWE,0.859 ± 0.12
3,AVGARRRLEVGD,0.722 ± 0.016
4,AVGCLGKSRATL,0.662 ± 0.0088
5,AVGLGARHRVAW,0.688 ± 0.016
6,AVGLGPFGGSRG,0.695 ± 0.0095
7,AVGRSVVCINRA,0.686 ± 0.041
8,AVGVCGGGWWWA,0.792 ± 0.098
9,AVLERGLCCGEY,0.738 ± 0.031
10,AVLGGAGGGWAG,0.687 ± 0.12
11,AVLKDFDTKHLY,0.613 ± 0.024
12,AVMGQRQAESPV,0.693 ± 0.067
13,AVPGLPLWWQPS,0.746 ± 0.028
14,AVQSEFGVGFSM,0.736 ± 0.04
15,AVRELIRASGPG,0.642 ± 0.043
16,AVRVLLISSSGT,0.641 ± 0.031
17,AVSFGSTLANWA,0.718 ± 0.062
18,AVSTYGAQAWNH,0.704 ± 0.018
19,AVVFCSIPCLRV,0.575 ± 0.052
20,AWDSVNDSDPPR,0.717 ± 0.035
21,AWEPGGVVAVLL,0.621 ± 0.14
22,AWGLKRSCRIKL,0.678 ± 0.051
23,AWNRFVNPRVWS,0.677 ± 0.03
24,AWRGFVALSFSR,0.695 ± 0.049
25,AWRGGSRKDVEG,0.7129 ± 0.001
26,AWRGLAPRFVLT,0.544 ± 0.01

row,Sequence,protein stability index
1,AWSALWGAVSPY,0.7073 ± 0.0027
2,AWSVRVGGSATA,0.695 ± 0.033
3,AWVCSPSACGLV,0.834 ± 0.089
4,AYAPPSALPYPF,0.729 ± 0.0075
5,AYDIIPGKFKKI,0.652 ± 0.05
6,AYGGEWGDRGWL,0.688 ± 0.076
7,AYSPLFPPLLSL,0.649 ± 0.045
8,AYVFLPINKENR,0.6405 ± 0.0053
9,AYVHGSINPMQP,0.691 ± 0.011
10,AYVQPASRSPPP,0.735 ± 0.062
11,CAGLIDLVGDVS,0.654 ± 0.018
12,CARSFGLFGTAT,0.694 ± 0.075
13,CASACPPPPPAT,0.726 ± 0.019
14,CASGPLQPLPRA,0.753 ± 0.084
15,CAVGPQSSSCPR,0.56 ± 0.03
16,CAVVSRYQPLSL,0.7092 ± 0.006
17,CAWRSVRLLIAH,0.506 ± 0.068
18,CCFHRLRYSRAV,0.647 ± 0.02
19,CCGGRTWFVCGV,0.699 ± 0.041
20,CCRANWDFPIPS,0.707 ± 0.027
21,CCRTMLGSLVRS,0.659 ± 0.012
22,CCVSLQSNLLFS,0.68 ± 0.026
23,CDLISPAHLVLG,0.678 ± 0.01
24,CDRPERRRTHVY,0.655 ± 0.041
25,CDSRLSGVFKFG,0.6816 ± 0.0026
26,CDVIGLVRVKRG,0.771 ± 0.047

row,Sequence,protein stability index
1,CDWRSMEWRGCW,0.693 ± 0.0072
2,CFCGGFGVFVIF,0.593 ± 0.014
3,CFFFFIFSLFGL,0.515 ± 0.02
4,CFGRSPWLTINV,0.6171 ± 0.0046
5,CFIPLCPLSFCI,0.609 ± 0.016
6,CFLERLAFPGLY,0.633 ± 0.011
7,CFLSFLLFSSSP,0.558 ± 0.025
8,CFPPSLVPRPTY,0.673 ± 0.054
9,CFSRKGIRIKRP,0.734 ± 0.0098
10,CFVERRCFLLYR,0.562 ± 0.029
11,CFVSSSRFLSSF,0.692 ± 0.065
12,CGCVWVSYFFDK,0.655 ± 0.069
13,CGFLFPCSPSSK,0.689 ± 0.068
14,CGGCPGCDIHMG,0.655 ± 0.082
15,CGGFGGLYVVVF,0.545 ± 0.014
16,CGGGGGLWLLEV,0.559 ± 0.015
17,CGGSLGAPVLVG,0.588 ± 0.042
18,CGGSWMRGLRDL,0.72 ± 0.043
19,CGILTWASSSLG,0.688 ± 0.034
20,CGLCLGGEWLVG,0.701 ± 0.026
21,CGLRGAGCLARD,0.637 ± 0.019
22,CGPGGFGGERVG,0.73 ± 0.058
23,CGRFGRGVDLGN,0.687 ± 0.02
24,CGRFVGEGGGKV,0.777 ± 0.1
25,CGRLSNAAEPTC,0.792 ± 0.19
26,CGRPRGGEPGGA,0.715 ± 0.078

row,Sequence,protein stability index
1,CGVWHGFFGLWL,0.657 ± 0.12
2,CGVYGRVVEWGG,0.706 ± 0.042
3,CGWGVWGAKSGR,0.6289 ± 0.0049
4,CIFSMLLPPFSL,0.687 ± 0.0091
5,CIFWGSGWDTLV,0.728 ± 0.063
6,CIIIIGRHSIWG,0.672 ± 0.057
7,CKCKFLGLSATM,0.613 ± 0.013
8,CKRKGREEEEKE,0.7361 ± 0.0064
9,CLCITGIPVQGF,0.653 ± 0.064
10,CLCLCFLDYKAC,0.5731 ± 0.0051
11,CLCRAAGARRCG,0.694 ± 0.03
12,CLESKTGYEVMG,0.7065 ± 0.0052
13,CLFIAGGSDLSH,0.7 ± 0.039
14,CLFSVENNNILG,0.704 ± 0.0015
15,CLGLRFDFYGFV,0.702 ± 0.065
16,CLGLVSNCGLYV,0.674 ± 0.041
17,CLHTSVYFHLQR,0.669 ± 0.04
18,CLLLVLCKFGLL,0.556 ± 0.023
19,CLRRTSLEDRRR,0.704 ± 0.037
20,CLTSSIFSRSFA,0.632 ± 0.04
21,CLVSVDYFPPKL,0.75 ± 0.16
22,CLWRGDEGRVPW,0.7139 ± 0.0026
23,CMVRGCFNHCGW,0.669 ± 0.024
24,CNSRVSAVGLII,0.6303 ± 0.0018
25,CPALSPSPTLAS,0.68 ± 0.15
26,CPGLCVFFSPDY,0.661 ± 0.044

row,Sequence,protein stability index
1,CPGTSRADFSAV,0.681 ± 0.044
2,CPLPLPPLHESF,0.674 ± 0.031
3,CPPPPPPPASPH,0.698 ± 0.074
4,CPPPTPPAPPLP,0.74 ± 0.033
5,CPPRPCTASIVR,0.632 ± 0.036
6,CPRRVAVAGETS,0.697 ± 0.044
7,CPVFYRYCHPPH,0.707 ± 0.047
8,CRCVRVGSVVLD,0.632 ± 0.016
9,CREWNKAGWGNV,0.702 ± 0.014
10,CRGRGFVVGGRR,0.687 ± 0.035
11,CRISHPPLGGGS,0.652 ± 0.02
12,CRRCQRNRVLDG,0.673 ± 0.068
13,CRRHPLTVVPIL,0.619 ± 0.028
14,CRVSIVPIKRYS,0.578 ± 0.099
15,CRVVRGGEGLGG,0.652 ± 0.0081
16,CRWLGELGVWVF,0.637 ± 0.062
17,CSCSTFWFFFGR,0.724 ± 0.026
18,CSGEGDQWLGVR,0.7139 ± 0.0028
19,CSGFPPPPHSSL,0.6812 ± 0.00089
20,CSGLTLLRFFVW,0.654 ± 0.064
21,CSGPARERPVRF,0.709 ± 0.062
22,CSLLFSLNLMPS,0.666 ± 0.063
23,CSLPPSPAVPPP,0.644 ± 0.022
24,CSLQCLGWPISS,0.739 ± 0.087
25,CSNGVPLTVLLM,0.525 ± 0.0057
26,CSRFPYSHSLSQ,0.716 ± 0.016

row,Sequence,protein stability index
1,CSRLDVSEVVGD,0.663 ± 0.074
2,CSSVGGYGGFEV,0.616 ± 0.013
3,CSVCMSSSRLFS,0.733 ± 0.014
4,CTGDLSHVLFGI,0.725 ± 0.016
5,CTTSCARWVTTW,0.647 ± 0.02
6,CTVPGLTPKCIY,0.581 ± 0.042
7,CTYAPSGRNSHF,0.7656 ± 0.0035
8,CVDAFLVRLVFM,0.568 ± 0.013
9,CVGLGGPPGGCG,0.603 ± 0.091
10,CVIVCETYFQCA,0.53 ± 0.0088
11,CVLRTSQPSCPG,0.627 ± 0.023
12,CVLSFVRGCLGA,0.587 ± 0.067
13,CVRPSFMSRSLR,0.719 ± 0.064
14,CVRRKYIGGGEG,0.673 ± 0.025
15,CVSTYLTCSITS,0.54 ± 0.022
16,CWGVGGRTVING,0.671 ± 0.049
17,CYAVEACWASCA,0.597 ± 0.0087
18,CYMFFNPSFNRR,0.712 ± 0.017
19,CYPFSGLWPPPP,0.717 ± 0.018
20,CYVGALQKCGTR,0.674 ± 0.01
21,DAELYLPSPTRL,0.666 ± 0.064
22,DAGRLLIVSVDS,0.662 ± 0.036
23,DAPEKQDKHINE,0.719 ± 0.088
24,DCFSASIHYCPS,0.714 ± 0.059
25,DCLRQTVPEGAM,0.723 ± 0.069
